Data reported in patent publication US20240115603A1 (Zymeworks, published 2024).

Columns and labels:
[1] = target: T1, WT G-CSFR(Ig-CRH), purified, tag cleaved (human, UniProt Q99062 26-331); assay: SPR (Biacore T200)
T1 construct: also called G-CSFRWT; wild type G-CSFR ECD
T1 chain: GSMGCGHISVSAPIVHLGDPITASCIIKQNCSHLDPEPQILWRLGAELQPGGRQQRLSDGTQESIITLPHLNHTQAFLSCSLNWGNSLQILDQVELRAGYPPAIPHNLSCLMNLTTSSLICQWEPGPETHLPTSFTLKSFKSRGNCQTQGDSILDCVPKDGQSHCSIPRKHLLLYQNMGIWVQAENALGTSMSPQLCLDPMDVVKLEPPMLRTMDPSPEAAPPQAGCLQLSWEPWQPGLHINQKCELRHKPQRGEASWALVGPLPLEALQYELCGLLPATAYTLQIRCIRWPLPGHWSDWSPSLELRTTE

[2] = target: T1, WT G-CSFR(Ig-CRH), purified, tag cleaved; assay: SPR (Biacore T200), WT G-CSFR(Ig-CRH) amine-coupled, G-CSFE injected; KD relative to WT:WT control (larger = weaker)
[3] = target: T2, G-CSFR(Ig-CRH)E design 34, purified, tag cleaved (human, UniProt Q99062 26-331); assay: SPR (Biacore T200), G-CSFR(Ig-CRH)E amine-coupled, G-CSFE injected; KD relative to WT:WT control (larger = weaker)
T2 construct: SPR protein; also called Design 34 G-CSFR(Ig-CRH)E
T2 chain: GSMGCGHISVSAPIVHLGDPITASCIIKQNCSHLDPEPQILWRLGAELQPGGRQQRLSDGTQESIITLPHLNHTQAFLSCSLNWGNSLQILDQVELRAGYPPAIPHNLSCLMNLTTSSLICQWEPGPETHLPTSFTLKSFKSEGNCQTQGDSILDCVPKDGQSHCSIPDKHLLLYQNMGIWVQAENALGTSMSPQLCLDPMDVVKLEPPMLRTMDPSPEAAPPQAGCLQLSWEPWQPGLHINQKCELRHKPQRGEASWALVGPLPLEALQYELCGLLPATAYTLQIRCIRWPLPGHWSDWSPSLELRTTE
Protocol: (§1) The SPR binding assays were carried out on a Biacore T200 instrument (GE Healthcare, Mississauga, ON, Canada) with PBS-T (PBS+0.05% (v/v) Tween 20) running buffer at a temperature of 25° C. CMS Series S sensor chip, Biacore amine coupling kit (NHS, EDC and 1 M ethanolamine), and 10 mM sodium acetate buffers were all purchased from GE Healthcare. PBS running buffer with 0.05% Tween20 (PBS-T) was purchased from Teknova Inc. (Hollister, CA).
(§2) To determine binding affinity of G-CSFE to G-CSFRE the G-CSFRE mutant was captured by standard amine coupling as described by the manufacturer (GE LifeSciences). Briefly, immediately after EDC/NHS activation, a 5 μg/mL solution of G-CSFRE in 10 mM NaOAc, pH 5.0, was injected at a flow rate of 5 μL/min until a receptor density of ˜700-900 RU was reached. The remaining active groups were quenched by a 420 s injection of 1 M ethanolamine hydrochloride-NaOH pH 8.5 at 10 μL/min. Using single-cycle kinetics, six concentrations of a two-fold dilution series of the corresponding G-CSFE mutant starting at 200 nM with a blank buffer control were sequentially injected at 25 μL/min for 300s with a 1800s dissociation phase, resulting in a set of sensorgrams with a buffer blank reference. The same sample titration was also performed on a reference cell with no variants captured. The chip was regenerated to prepare for the next injection cycle by one pulse of 10 mM glycine/HCl, pH 2.0, for 30 s at 30 μL/min.
(§3) Double-referenced sensorgrams from duplicate or triplicate repeat injections were analyzed using Biacore™ T200 Evaluation Software v3.0 and fit to the 1:1 Langmuir binding model.

[4] = target: T3, G-CSFR(Ig-CRH)E design 300, purified, tag cleaved (human, UniProt Q99062 26-331); assay: as above
T3 construct: SPR protein; also called Design 300 G-CSFR(Ig-CRH)E
T3 chain: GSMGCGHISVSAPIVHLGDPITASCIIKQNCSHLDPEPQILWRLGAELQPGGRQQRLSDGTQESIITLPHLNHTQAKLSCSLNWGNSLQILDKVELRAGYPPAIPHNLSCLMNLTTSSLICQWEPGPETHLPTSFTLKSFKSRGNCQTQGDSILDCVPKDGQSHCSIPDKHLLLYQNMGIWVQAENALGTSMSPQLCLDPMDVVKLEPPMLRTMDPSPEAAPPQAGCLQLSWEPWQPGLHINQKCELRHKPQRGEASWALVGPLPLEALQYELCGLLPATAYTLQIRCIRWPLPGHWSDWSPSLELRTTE
Protocol: as §1, §2, §3

[5] = target: T1, WT G-CSFR(Ig-CRH), purified, tag cleaved; assay: SPR (Biacore T200), WT G-CSFR(Ig-CRH) amine-coupled
[6] = target: T4, G-CSFR(Ig-CRH)E design 130, purified, tag cleaved (human, UniProt Q99062 26-331); assay: SPR (Biacore T200), G-CSFR(Ig-CRH)E amine-coupled, G-CSFE injected; KD relative to WT:WT control (larger = weaker)
T4 construct: SPR protein; also called Design 130 G-CSFR(Ig-CRH)E
T4 chain: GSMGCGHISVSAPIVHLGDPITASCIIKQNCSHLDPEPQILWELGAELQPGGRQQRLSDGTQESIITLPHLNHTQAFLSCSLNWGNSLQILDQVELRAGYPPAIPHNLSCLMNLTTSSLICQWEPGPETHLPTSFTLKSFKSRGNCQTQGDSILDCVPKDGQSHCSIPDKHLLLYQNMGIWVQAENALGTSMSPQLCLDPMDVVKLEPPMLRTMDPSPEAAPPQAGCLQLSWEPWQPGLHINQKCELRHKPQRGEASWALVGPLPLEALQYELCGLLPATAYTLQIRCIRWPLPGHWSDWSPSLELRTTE
Protocol: as §1, §2, §3

[7] = target: T5, G-CSFR(Ig-CRH)E design 134 (R41E_R141E_R167D), purified, tag cleaved (human, UniProt Q99062 26-331); assay: as above
T5 construct: also called Design 134 G-CSFR(Ig-CRH)E; design 137 G-CSFR(Ig-CRH)E
T5 chain: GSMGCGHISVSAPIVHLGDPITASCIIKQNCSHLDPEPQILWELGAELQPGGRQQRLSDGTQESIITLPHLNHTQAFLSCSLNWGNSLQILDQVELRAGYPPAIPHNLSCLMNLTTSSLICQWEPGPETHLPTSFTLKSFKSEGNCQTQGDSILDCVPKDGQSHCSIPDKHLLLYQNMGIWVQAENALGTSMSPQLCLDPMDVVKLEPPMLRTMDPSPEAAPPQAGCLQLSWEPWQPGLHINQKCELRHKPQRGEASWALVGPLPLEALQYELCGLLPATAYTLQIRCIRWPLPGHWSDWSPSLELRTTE
Protocol: as §1, §2, §3

[8] = target: T6, G-CSFR(Ig-CRH)E design 35, purified, tag cleaved (human, UniProt Q99062 26-331); assay: as above
T6 construct: SPR protein; also called Design #35 G-CSFR(Ig-CRH)E
T6 chain: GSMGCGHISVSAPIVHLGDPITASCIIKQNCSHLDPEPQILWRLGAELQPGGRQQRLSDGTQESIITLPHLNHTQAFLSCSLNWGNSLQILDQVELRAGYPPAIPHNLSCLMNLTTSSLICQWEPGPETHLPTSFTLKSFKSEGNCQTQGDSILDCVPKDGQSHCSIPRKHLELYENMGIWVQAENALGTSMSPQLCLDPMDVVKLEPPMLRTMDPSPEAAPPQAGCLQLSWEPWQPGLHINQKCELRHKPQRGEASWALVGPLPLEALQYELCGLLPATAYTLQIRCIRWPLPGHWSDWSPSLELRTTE
Protocol: as §1, §2, §3

[9] = target: T7, G-CSFR(Ig-CRH)E design 402, purified, tag cleaved (human, UniProt Q99062 26-331); assay: SPR (Biacore T200), G-CSFR(Ig-CRH)E amine-coupled, G-CSFE injected; steady-state derived KD relative to steady-state WT:WT KD
T7 construct: SPR protein; also called Design 402 G-CSFR(Ig-CRH)E
T7 chain: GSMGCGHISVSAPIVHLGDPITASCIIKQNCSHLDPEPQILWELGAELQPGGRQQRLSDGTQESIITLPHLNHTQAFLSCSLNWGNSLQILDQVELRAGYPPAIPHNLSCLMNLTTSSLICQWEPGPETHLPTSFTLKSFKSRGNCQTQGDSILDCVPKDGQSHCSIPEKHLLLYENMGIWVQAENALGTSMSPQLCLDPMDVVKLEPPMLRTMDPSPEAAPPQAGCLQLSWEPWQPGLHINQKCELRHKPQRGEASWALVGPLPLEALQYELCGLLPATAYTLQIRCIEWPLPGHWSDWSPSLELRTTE
Protocol: as §2, §3
(§4) Kinetic-derived affinity constants (KD) where obtained by fitting the association and dissociation phases of the curves. […] For the cases in which the kinetic parameters could not be fit an attempt was made to derive a steady state affinity constant.

[10] = target: T8, G-CSFR(Ig-CRH)E design 401, purified, tag cleaved (human, UniProt Q99062 26-331); assay: as above
T8 construct: SPR protein; also called Design 401 G-CSFR(Ig-CRH)E
T8 chain: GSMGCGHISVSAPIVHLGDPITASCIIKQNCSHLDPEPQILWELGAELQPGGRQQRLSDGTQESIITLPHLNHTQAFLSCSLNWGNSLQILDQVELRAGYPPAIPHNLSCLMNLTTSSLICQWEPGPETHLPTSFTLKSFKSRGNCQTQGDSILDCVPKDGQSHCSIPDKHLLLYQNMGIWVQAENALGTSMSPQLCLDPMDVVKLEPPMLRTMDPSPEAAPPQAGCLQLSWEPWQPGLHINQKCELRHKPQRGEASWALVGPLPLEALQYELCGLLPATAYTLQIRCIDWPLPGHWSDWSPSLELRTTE
Protocol: as §2, §3, §4

[11] = target: T9, G-CSFR(Ig-CRH)E design 303, purified, tag cleaved (human, UniProt Q99062 26-331); assay: as above
T9 construct: SPR protein; also called Design 303 G-CSFR(Ig-CRH)E
T9 chain: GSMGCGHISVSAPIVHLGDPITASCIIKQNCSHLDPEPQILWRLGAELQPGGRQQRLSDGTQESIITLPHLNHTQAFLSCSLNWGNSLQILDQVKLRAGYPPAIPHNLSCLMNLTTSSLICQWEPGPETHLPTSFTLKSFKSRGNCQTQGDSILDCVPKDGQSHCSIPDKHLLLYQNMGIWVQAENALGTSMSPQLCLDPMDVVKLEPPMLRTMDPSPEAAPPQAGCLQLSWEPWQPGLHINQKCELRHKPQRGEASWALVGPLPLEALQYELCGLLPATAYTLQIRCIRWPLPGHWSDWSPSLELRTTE
Protocol: as §2, §3, §4

B1: G-CSFE design 34, purified, tag cleaved (ligand)
chain: TPLGPASSLPQSFLLKCLEQVRKIQGDGAALQEKLCATYKLCHPEELVLLGHSLGIPWAPLSSCPSQALQLAGCLSQLHSGLFLYQGLLQALEGISPELGPTLDTLQKDVARFATTIWQQMRRLGMAPALQPTQGAMPAFASAFQRRAGGVLVASHLQSFLEVSYRVLRHLAQAAAENLYFQ
notes: also called Design 34 G-CSFE
B1 was tested, and the “fold weaker KD (vs WT:WT)” value [1] was ≥ 20 fold, the “KD fold change (vs WT:WT)” value [2] was 33 fold and the “KD fold change (vs WT:WT)” value [3] was 5 fold.

B2: G-CSFE design 300, purified, tag cleaved (ligand)
chain: TPLGPASSLPQSFLLKCLEQVRKIQGDGAALQEKLCATYDDCHPEELVLLGHSLGIPWAPLSSCPSQALQLAGCLSQLHSGLFLYQGLLQALEGISPELGPTLDTLQKDVARFATTIWQQMEELGMAPALQPTQGAMPAFASAFQRRAGGVLVASHLQSFLEVSYRVLRHLAQAAAENLYFQ
notes: also called Design 300 G-CSFE
With B2 the “KD fold change (vs WT:WT)” value [4] was 194 fold and the binding result [5] was “no binding”.

B3: G-CSFE design 130 (E46R_L108K_D112R), purified, tag cleaved (ligand)
chain: TPLGPASSLPQSFLLKCLEQVRKIQGDGAALQEKLCATYKLCHPERLVLLGHSLGIPWAPLSSCPSQALQLAGCLSQLHSGLFLYQGLLQALEGISPELGPTLDTLQKDVARFATTIWQQMEELGMAPALQPTQGAMPAFASAFQRRAGGVLVASHLQSFLEVSYRVLRHLAQAAAENLYFQ
notes: also called 130 G-CSF; G-CSF137
In the case of B3, the “KD fold change (vs WT:WT)” value [6] is reported as 0.9 fold, the “KD fold change (vs WT:WT)” value [7] is reported as 0.3 fold and the binding result [5] is reported as “no binding”.

B4: G-CSFE design 35, purified, tag cleaved (ligand)
chain: TPLGPASSLPQSFLLKCLEQVRKIQGDGAALQEKLCATYKLCHPEELVLLGHSLGIPWAPLSSCPSQALQLAGCLSQLHSGLFLYQGLLQALEGISPELGPTLDTLQLDVADFAKTIWQQMRRLGMAPALQPTQGAMPAFASAFQRRAGGVLVASHLQSFLEVSYRVLRHLAQAAAENLYFQ
notes: also called Design 35 G-CSFE
With B4 the “KD fold change (vs WT:WT)” value [2] was 5 fold and the “KD fold change (vs WT:WT)” value [8] was 3.3 fold.

B5: G-CSFE design 402, purified, tag cleaved (ligand)
chain: TPLGPASSLPQSFLLKCLKQVRKIQGDGAALQEKLCATYKLCHPERLVLLGHSLGIPWAPLSSCPSQALQLAGCLSQLHSGLFLYQGLLQALEGISPELGPTLDTLQLDVAKFAKTIWQQMEELGMAPALQPTQGAMPAFASAFQRRAGGVLVASHLQSFLEVSYRVLRHLAQAAAENLYFQ
notes: also called Design 402 G-CSFE
With B5 the “KD fold change (vs WT:WT)” value [9] was 0.8 fold and the binding result [5] was “no binding”.

B6: G-CSFE design 401, purified, tag cleaved (ligand)
chain: TPLGPASSLPQSFLLKCLKQVRKIQGDGAALQEKLCATYKLCHPERLVLLGHSLGIPWAPLSSCPSQALQLAGCLSQLHSGLFLYQGLLQALEGISPELGPTLDTLQKDVARFATTIWQQMEELGMAPALQPTQGAMPAFASAFQRRAGGVLVASHLQSFLEVSYRVLRHLAQAAAENLYFQ
notes: also called Design 401 G-CSFE
For B6, the “KD fold change (vs WT:WT)” value [10] was 0.6 fold and the binding result [5] was “no binding”.

B7: G-CSFE design 303, purified, tag cleaved (ligand)
chain: TPLGPASSLPQSFLLKCLEQVRKIQGDGAALQEKLCATYKLCHPEELVLLGHSLGIPWAPLSSCPSQALQLAGCLSQLHSGLFLYQGLLQALEGISPELGPTLDTLQKDVARFATTIWQQMEELGMAPALQPTQGAMPAFASAFQREAGGVLVASHLQSFLEVSYRVLRHLAQAAAENLYFQ
notes: also called Design 303 G-CSFE
In the case of B7, the “KD fold change (vs WT:WT)” value [11] is reported as 2.2 fold and the binding result [5] is reported as “no binding”.
